Data from publication PMC4319847 (PLoS ONE, 2015).

Target: Full-length human importin-α1 (h-importin-α1) (1–526) (human, UniProt P52292 1-526)
Assay: ITC
Details: both partners purified

B1: SV40 NLS peptide (PKKKRKV) (peptide)
peptide: PKKKRKV
notes: source: synthetic peptide
Kd: 102 ± 11 µM
